Results on 4 molecules are retold here after patent publication US7629323B2, “Manipulation of neuronal ion channels” (Northwestern University, priority 2003, dated 2009).

One data set deals with Kv3.4 mRNA. Nature of the data set: siRNA suppression of Kv3.4 mRNA in HEK293/Kv3.4 cells, real-time quantitative PCR. It is filed as cell-based, rat. The note with it: normalized to transfection efficiency (60%). The procedure:
For example, mammalian cells expressing the potassium channel were tested with siRNA vectors. HEK 293/Kv3.4a cells were generated by stable transfection with a linearized form of pcDNA3/Kv3.4a (Baranauskas et al., Nat Neurosci., 6:258 (2003)), and geneticin selection of a single clone. Kv3.4 expression was confirmed by quantitative PCR and Western blotting. Four target sequences were chosen (#1, #2, #3, and #4, described in more detail below). HEK293/Kv3.4 cells were transfected with these siRNA. To monitor transfection efficiency fluorescein labeled luciferase GL2-F1 siRNA (Dharmacon) was used. In transfected cells, labeled duplexes are detectable as discrete punctate cytoplasmic dots (Holen et al., Nucleic Acids Res., 30:1757 (2002)). Transfection efficiency was 60%, probably, due to high passage number.
Real-time quantitative PCR employing SYBR green fluorescence detection was used to measure Kv3.4 cDNA abundance. As a control for the non-specific effects of siRNA duplexes, siRNA targeting Kv3.1 was used. The differences in the amount of extracted RNA were taken into account by normalization to β-actin. Variability in the amplification during PCR reactions was estimated by running five PCR reactions for the same cDNA sample. […]

The target of data set [1] is Kv3.4 protein (native, rat brain membranes / fast-spiking neurons) (rat) (UniProt Q63734). Nature of the data set: cell-based or functional assay.
The target in data set [2] is T1, Kv3.4a/Kv3.1b heteromeric channels (Rattus norvegicus, UniProt P25122+Q63734).
T1 construct: expressed in transfected cells; host or cells: HEK293
T1 sequence (Q63734 1-625): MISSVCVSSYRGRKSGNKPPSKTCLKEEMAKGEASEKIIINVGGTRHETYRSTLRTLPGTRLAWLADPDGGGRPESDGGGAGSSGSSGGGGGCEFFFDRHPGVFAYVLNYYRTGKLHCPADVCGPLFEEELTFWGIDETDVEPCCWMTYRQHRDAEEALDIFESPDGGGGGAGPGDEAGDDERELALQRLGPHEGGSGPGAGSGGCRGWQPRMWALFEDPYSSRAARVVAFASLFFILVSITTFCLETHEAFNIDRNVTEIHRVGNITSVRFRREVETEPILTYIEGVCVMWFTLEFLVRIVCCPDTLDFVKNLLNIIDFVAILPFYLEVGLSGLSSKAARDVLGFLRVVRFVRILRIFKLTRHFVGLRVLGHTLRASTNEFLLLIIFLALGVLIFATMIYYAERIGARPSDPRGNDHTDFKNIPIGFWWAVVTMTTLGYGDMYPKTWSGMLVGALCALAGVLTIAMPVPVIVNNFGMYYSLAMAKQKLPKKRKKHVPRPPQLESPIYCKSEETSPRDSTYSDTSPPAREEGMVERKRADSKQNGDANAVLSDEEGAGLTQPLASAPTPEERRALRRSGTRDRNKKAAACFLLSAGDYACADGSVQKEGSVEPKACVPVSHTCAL
T1 sequence (P25122 1-585): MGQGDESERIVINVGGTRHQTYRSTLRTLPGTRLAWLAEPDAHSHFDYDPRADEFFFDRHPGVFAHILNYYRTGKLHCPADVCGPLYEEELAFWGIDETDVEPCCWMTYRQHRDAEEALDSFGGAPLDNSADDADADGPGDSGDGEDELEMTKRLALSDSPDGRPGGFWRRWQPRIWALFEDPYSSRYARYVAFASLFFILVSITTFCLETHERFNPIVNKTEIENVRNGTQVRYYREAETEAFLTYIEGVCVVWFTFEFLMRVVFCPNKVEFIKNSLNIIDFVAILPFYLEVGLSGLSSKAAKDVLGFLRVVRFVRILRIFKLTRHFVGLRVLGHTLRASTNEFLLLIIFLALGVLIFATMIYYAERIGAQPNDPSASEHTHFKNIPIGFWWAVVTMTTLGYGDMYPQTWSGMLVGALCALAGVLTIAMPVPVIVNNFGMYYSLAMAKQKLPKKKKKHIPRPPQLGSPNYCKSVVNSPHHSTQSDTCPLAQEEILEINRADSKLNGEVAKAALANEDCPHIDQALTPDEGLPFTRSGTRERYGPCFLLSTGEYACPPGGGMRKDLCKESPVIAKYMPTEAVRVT
It is filed as cell-based. The source says: Electrophysiology. Whole-cell recordings used standard techniques^27,28. The internal solution consisted of (in mM): 30-90 K2SO4, 0-60 N-methyl-D-glucamine, 2 MgCl2, 40 HEPES, 5 EGTA, 12 phosphocreatine, 2 Na2ATP, 0.2 Na3GTP, and 0.1 leupeptin, pH 7.2 with H2SO4 (osmolarity 260-270 mOsm/l). The external solution consisted of (in mM): 140 Na-isethionate, 2 KCl, 4 MgCl2, 10 HEPES, 12 glucose and 0.001 TTX, pH 7.35 with NaOH (osmolarity 295-305 mOsm/l). The internal solution for current clamp recordings consisted of (in mM) 110 potassium methylsulphate, 2 MgCl2, 40 HEPES, 5 EGTA, 12 phosphocreatine, 2 Na2ATP, 0.2 Na3GTP, and 0.1 leupeptin, pH 7.2 with H2SO4 (osmolarity 260-270 mOsm/l). In the case of current clamp recordings, TTX was omitted from external solution. For the recordings in the presence of Ca^+2 ions EGTA was omitted from internal solution and 4 mM of MgCl2 was substituted by 2 mM of CaCl2 and 2 mM of MgCl2. […] Recordings were obtained with Axon Instruments 200 patch-clamp amplifier and controlled and monitored with a PC running pClamp software (version 7.0) (Axon Instruments Inc., Union City, Calif.). […] After seal rupture, series resistance (2-10 MΩ) was compensated (75-90%) and periodically monitored. […]
Single cell RT-PCR (scRT-PCR). […] In the case of co-transfection with Kv3.4a and Kv3.1b cDNA, single cell RT-PCR was used to confirm the presence of both mRNAs in the recorded cell. […]

In another data set the target is Kv3.1b (rat) (UniProt P25122). Nature of the data set: cell-based or functional assay.

With “duplex #4: 21-nt double-stranded RNA targeting rat Kv3.4 site D, GGCAGTGTTGAGCCGAAAC (SEQ ID NO:4), position 1825-1843 (second strand not cited, further chemistry not given here; listed as Rattus rattus)”, the “estimated suppression of the levels of Kv3.4 mRNA in the transfected cells” value in the data set with Kv3.4 mRNA is given as 50%.

With “BDS-I (from UniProt P11494 1-43) (peptide)”, the duration of spikes in FS neurons in data set [1] came out at 53%.

On to `CC[N+](CC)(CC)CC` [TEA, tetraethylammonium], for which the “block of K+ currents in Kv3.4a/Kv3.1b co-transfected HEK293 cells” value in data set [2] is “blocked”.

B1: Kv3.4a (protein, rat, UniProt Q63734 1-625, looked up)
chain: MISSVCVSSYRGRKSGNKPPSKTCLKEEMAKGEASEKIIINVGGTRHETYRSTLRTLPGTRLAWLADPDGGGRPESDGGGAGSSGSSGGGGGCEFFFDRHPGVFAYVLNYYRTGKLHCPADVCGPLFEEELTFWGIDETDVEPCCWMTYRQHRDAEEALDIFESPDGGGGGAGPGDEAGDDERELALQRLGPHEGGSGPGAGSGGCRGWQPRMWALFEDPYSSRAARVVAFASLFFILVSITTFCLETHEAFNIDRNVTEIHRVGNITSVRFRREVETEPILTYIEGVCVMWFTLEFLVRIVCCPDTLDFVKNLLNIIDFVAILPFYLEVGLSGLSSKAARDVLGFLRVVRFVRILRIFKLTRHFVGLRVLGHTLRASTNEFLLLIIFLALGVLIFATMIYYAERIGARPSDPRGNDHTDFKNIPIGFWWAVVTMTTLGYGDMYPKTWSGMLVGALCALAGVLTIAMPVPVIVNNFGMYYSLAMAKQKLPKKRKKHVPRPPQLESPIYCKSEETSPRDSTYSDTSPPAREEGMVERKRADSKQNGDANAVLSDEEGAGLTQPLASAPTPEERRALRRSGTRDRNKKAAACFLLSAGDYACADGSVQKEGSVEPKACVPVSHTCAL
In the data set with Kv3.1b (rat), B1 showed a fast inactivation time constant of K+ currents in co-transfected HEK293 cells of 38 ms; a mean burst duration (long bursts), single channel recording of co-transfected HEK293 cells of 250 ms; a mean burst duration (short bursts), single channel recording of co-transfected HEK293 cells of 16.2 ms.
